The series concerns the molecule itself. Kind of series: EMSA, E. coli protein extract with 32P-labeled BoxIIml DNA probe; homodimer inferred from the shifted band. The procedure:
FIG. 5: Electrophoretic mobility shift assay (EMSA) of Rf2a and the 3Δ mutant of Rf2a. Oligonucleotides containing the BoxIIml sequences (Yin et al., 1997a) were used as ^32P-labeled probe or an unlabeled competitor in an EMSA with 500 ng of *E. coli* protein containing 3Δ protein or Rf2a. Unbound probe is located near the bottom of the gel. The band with the greatest mobility in lanes 1, 2, 4, and 5 indicated by x is presumed to result from binding with an uncharacterized protein that co-purifies with the target protein. Lane 1, protein prepared from *E. coli* without induction. Lane 2, reaction with extracts of *E. coli* that produce Rf2a. Lane 3, reaction with equimolar amounts of Rf2a and 3Δ plus 80× fold molar excess of unlabeled competitor probe relative to the labeled probe. Lane 4, reaction with equimolar amounts of Rf2a and 3Δ. Lane 5, reaction with 3Δ.
Electrophoretic mobility shift assays (EMSAs). EMSAs were carried out essentially as described by Yin and Beachy (7). 500 ng of *E. coli* protein extracts were incubated with 32_P labeled DNA probes comprising Box IIml that was constructed using annealed oligonucleotides (10). For competition EMSA, unlabeled oligonucleotides were added to the binding reactions at 80 fold molar excess relative to the labeled probe (see FIG. 5).
For orientation: In EMSA bound probe runs differently from free probe, usually more slowly.

B1: Rf2a transcription factor (other)
chain: MNREKSPIPGDGGDGLPPQATRRAGPPAAAAAAEYDISRMPDFPTRNPGHRRAHSEILSLPEDLDLCAAGGGDGPSLSDENDEELFSMFLDVEKLNSTCGASSEAEAESSSAAAHGARPKHQHSLSMDESMSIKAEELVGASPGTEGMSSAEAKKAVSAVKLAELALVDPKRAKRIWANRQSAARSKERKMRYIAELERKVQTLQTEATTLSAQLALLQRDTSGLTTENSELKLRLQTMEQQVHLQDALNDTLKSEVQRLKVATGQMANGGGMMMNFGGMPHQFGGNQQMFQNNQAMQSMLAAHQLQQLQLHPQAQQQQVLHPQHQQQQPLHPLQAQQLQQAARDLKMKSPMGGQSQWGDGKSGSSGN
notes: The 5' primer encodes an extra Met-Glu-Lys before MNREKS; Crude E. coli protein extract was used in the EMSA; also called rice transcription factor Rf2a
Regarding B1, the binding result is recorded as “binds”.

The record behind these values is patent US7276370 (DONALD DANFORTH PLANT SCIENCE CENTER, dated 2007).
